Experimental findings from PMC13313556, “Development and characterization of triazole-based WDR5 inhibitors for the treatment of glioblastoma” (JCI Insight, 2026) are described below.

This experiment concerns the target His6-SUMO-WDR5 (recombinant human WD-repeat containing protein 5, residues Ser22-Cys334) (human, UniProt P61964 22-334). Put plainly: AlphaScreen or HTRF; competitive TR-FRET: 1 nM LanthaScreen Elite Tb-anti-His antibody, 150 nM 10-mer-Thr-FAM peptide, 2 nM His6-SUMO-WDR5 in 1X PBS pH 7.2, 300 mM NaCl, 0.5 mM TCEP, 0.1% CHAPS; 1 hour at room temperature; small-molecule inhibitors titrated to displace the peptide. The following applies: both partners purified. (In general: Alpha assays give light when donor and acceptor beads are brought close together.)

B1: 10-mer-Thr-FAM peptide probe (ARTEVHLRKS-[Ahx-Ahx][Lys-(5-FAM)]) (peptide)
peptide: ARTEVHLRKS
modifications: C-terminal Ahx-Ahx followed by Lys-(5-FAM)
notes: WIN-site peptide probe; After the ten printed residues come two aminohexanoic acid (Ahx) units and a lysine that carries 5-FAM; also called labeled WIN-site peptide; labeled WIN-peptide; source: synthetic peptide (GenScript)
As for B1, the binding result is “binds”.
